Data taken from the nanobody polyreactivity screen of Harvey et al. (2022).

Assay: yeast display, Sf9 membrane polyspecificity reagent, FACS + sequencing; frameworks hold sequencing errors
Method in brief: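 In a synthetic yeast display library (Saccharomyces cerevisiae BJ5465), nanobody expression was induced with galactose for 36–48 hours. FACS gates were set low and high (top ~1%) using anti-HA fluorescence for expression and streptavidin fluorescence for binding of the Sf9 membrane reagent. Each polyreactivity label is drawn from the gate of origin.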

QVQLVESGGGLVQAGGSLRLSCAASGITIVNYVMGWYRQAPGKERELVAAISIGGGTYYADSVKGRFTISRDNAKNTVYLQINSLKPEDTAVYYCNASYGGLSFYIGVYVTGYDYWGQGTQVTVSS
polyreactivity (PSR sort gate): low polyreactivity

QVQLVESGGGLVQAGGSLRLSSAASGRTFGYNAMGWYRPATGKERELVAAISWSGARTYYADSVKGRFTISRDIAKNTVYLQLNSLTPEDTAVYYCAAGIDGYYWPFFRNYDYWGQGTQVTVSS
polyreactivity (PSR sort gate): high polyreactivity

QVQLVESGGGLVQAGGSLRLSCAASGSTFIGNAMGWYRQAPGKERELVAAITRSGGSTFYADSVKGRFTISRDNAKNTVYLQMNSLKPEDTAVYYCAAKGNPYRVPGSSYPKVNYWGQGTQVTVSS
polyreactivity (PSR sort gate): high polyreactivity

QVQLVESGGGLVQAGGSLRLSCAASGSTFYYYVMGWYRQAPGKERELVATITSGGSTNYADSVKGRFTISRDNAKNTVYLQMNSLKPEDTAVYYCAADWYLIIARSRPTLDYDYWGQGTQVTVSS
polyreactivity (PSR sort gate): low polyreactivity

QVQLVESGGGLVQAGGSLRLSCAASGRIFYPNAMGWYRQAPGKERELVAGISSGGSTYYADSVKGRFTISRDNAKNTVYLQMNSLKPEDTAVYYCAARVYAHTSRRFLKYDYWGQGTQVTVSS
polyreactivity (PSR sort gate): high polyreactivity

QVQLVESGGGLVQAGGSLRLSCAASGFTFYRNAMGWYRQAPGKERELVAAITWSGTSTYYADSVKGRFTISRDNAKNTVYLQMNSLKPEDTAVYYCNTVGYRGRSNSRFYYWGQGTQVTVSS
polyreactivity (PSR sort gate): high polyreactivity

QVQLVESGGGLVQAGGSLRLSCAASGRTIYSYAMVLNTQAPGKERELVAAISRRGGSTYYADSVKGRFTISRDNAKNTVYLQLNSLIPEDTAVYYCAKRYTPLPYKGIWYYYWGQGTQVTVSS
polyreactivity (PSR sort gate): high polyreactivity

QVQLVESGGGLVQAGGSLRLSCAASGSIFAAYAMGWYRQAPGKERELVAAIDRGGSTDYADSVKGRFTISRDNAKNTVYLQMNSLKPEDTAVYYCAKGYDYYVRRYYYWGQGTQVTVSS
polyreactivity (PSR sort gate): high polyreactivity

QVQLVESGGGLDQAGGSLRLTCAASGSTFYLYDMGWYRQAPGKERELVAVISWSGGSTSYADSVKGRFTISSDNAKNTVYLHMNSLTPEDTAVYYCAAAIGVYYIDYRYLGTVEYWGQGTQVTVSS
polyreactivity (PSR sort gate): low polyreactivity

QVQLVVSGGGLVQAGGSLRLSCAASGFIFGYYAMGWYRQAPGNERALDAAITGRGGSTNYADSVKGRFTISRDNAKNTVYLQMNSLKPEDTAVYYCAKRWRSYSRGGDYWGQGTQVTVSS
polyreactivity (PSR sort gate): high polyreactivity

QVQLVESGGGLVQAGGSLRLSCAASGRIFSSNAMGWYRQAPGKERELVASISSTGSTKYADSVKGRFTISRDKAKNTVYLQMNSLKQEDSAVYYCAAGRYLWHFTFDYWGQGTQVTVSS
polyreactivity (PSR sort gate): low polyreactivity

QVQLVESGGGLVQAGGSLRLSCAASGRTFIPYAMGWYRQAPGKERELVAAISTTAGTTYYADSVKGRFTISRDNAKNTVYLQMNSLKPEDTAVYYCAARRRWYRRYGGDFWGQGTQVTVSS
polyreactivity (PSR sort gate): high polyreactivity

QVQLVESGGGLVQAGGSLRLSCAASGRIFYGKAMGWYRQAPGKERELVAGITTSGGGTYYADSVKGRFTISRDNAKNTVYLKMNSLKPEDTAVYYCAAKYRRYRDIQDGGYWGQGTQVTVSS
polyreactivity (PSR sort gate): low polyreactivity

QVQLVDSGGGLVQAAGSLRLSCAASGRIFYYNAKGCYRQAPVKERELVAAITRSGGSTYYADSVKGRFTSSRDNAKHTVYLQMNSLKPEDTAVYYCAKPDRTGWLDGDYWGQGTQVTVSS
polyreactivity (PSR sort gate): low polyreactivity

QVQPVESAGGLVQAGGSLRLSCAASGSTFARYAMGWFSQAPGKERELVAVITWTGGSTYADSVKGRFTISRDNAKNTVYLQMNSLNPEDTAVYYCNAVHATRRRLGYWGQGTQVTVSS
polyreactivity (PSR sort gate): low polyreactivity

QVQLVESGGGLVQAGGSLRLICAASGFIFGHNAMGWYRQAPGKERELVAAITWRGRTYYADSVKGRFTISRDNAKNCVYLQMNSMKPEDTSVFSCNAYVRYGYDYWGQGTQVTVSS
polyreactivity (PSR sort gate): high polyreactivity

QVQLVESGGCLVQAGGSLRLSCAASGSIRSYAMGWYRQAPGKERELVAAITRSGGSTYYADSVKGRFTISRDNAKNTVYLPMKSLKPEDTAVYYCAARYTYSYPLFGSWGQGTQVTVSS
polyreactivity (PSR sort gate): high polyreactivity

QVQLVESGGGLVKAGGSLLLSCAASGSTFRVNFMGWYRKSPGKERELVAAITTSGGSKYYADSVKGRFTITRDNAKNSVFLQMNSEKLDDTAVYFCNTTYPSGWGPETDYWGQGIQVTVSS
polyreactivity (PSR sort gate): low polyreactivity

QVQLVESGGGLVQAGGSLRLSCAASGRIFRKYAMGWYRQAPGTERELVATITLRGGSTYYADSVKGRFTISRDNGKNTVYLQMNSLKPEDTAVYYCATDITPAISVEYDYWGQGTQVTVSS
polyreactivity (PSR sort gate): high polyreactivity

QVQLVESGGGLVQAGGSLRLSCAASGFTFGHYAMGRYRQAPGKERELVAAIRWSGGSTYYADSVKGRFTISRDNAKNTVYLQMNSLKPEDTAVYYCAADGEDSLWTGYDYDYWGQGTQVTVSS
polyreactivity (PSR sort gate): low polyreactivity

QVQLVESGGGLVQAGGSLRLSCAASGIIFRYYTMGWYRQAPGKEREFVAAITGSSGSTYADSVKGRFTISRDNAKNTVYLQMNSLKPEDTAVYYCNADSYSIWVYGEYDYWGQGTQVTVSS
polyreactivity (PSR sort gate): high polyreactivity

QVQLVESGGGLVQAGGSLRLSCAASGSTFTYNAMGWYRQAPGKVRELVASISSGTTTYYADSVKGRFTISRDNAKNTVYLQMNSLTPEDTAVYYCAVDSWSRVQGWLAHNYDYWGQGTQVTVSS
polyreactivity (PSR sort gate): low polyreactivity

QVQLVESGGGLVQAGGSLRLSCAASGSIFYSNAMGWYRQAPGKERELVADISWSDGSTYYADSVKGRFTISRDNAKNNVYLQMNSLKPEDTEVYYCARKAGYSYFRRYDYWGQGTQVTVSS
polyreactivity (PSR sort gate): low polyreactivity

QVQLVESGGGLVQAGGSLRLSCAASGSIFHTYAMGWYRKAPEKERELVAANTVSGGDTYYADSVKGRFTISRDNEKNTVYLQMNSLKAEDTAVYYCAVDTTTSYTVEYDYWGQGTQVTVSS
polyreactivity (PSR sort gate): low polyreactivity

QVQLVESGGGLVQAGGSLRLSCAASGGILDTYAMGWYRQAPGKERELVAAITSGGNTNYADSVKGRFTISRDNAKNTVYLQMNSLKPEDTAVYYCNVVTWYYVFRPWEYDYWGQGSQVTVSS
polyreactivity (PSR sort gate): low polyreactivity

QVQLVESGGGLVQAGGSLRLSCAASGSTLRRNAMGWYRQAPGTERELVAAITGSRGSTFYADSVKGRFTISRDNAKNTVYLQMNSLKPEDTAVYYCAVYKWSTRVSQYRYDYWGQGTQVTVSS
polyreactivity (PSR sort gate): high polyreactivity

QVQLVESGGGLVQAGGSLRLSCAASGITFGDNARGWYRQAPGKERELVAAISSGGSTDYADSVKGRFTISRDNAKNTVYLQMNSLKPEDTAVYYCAVDWVSVPEYDYWGQGTQVTVSS
polyreactivity (PSR sort gate): low polyreactivity

QVQLVESGGGLVQAGGSLRLSCAASGRIFRWYAMGWYRQAPGKERELVAAITRSGSTTYYADSVKGRFTISRDNAKNAVYLQMNSLKPEDTAVSYSAAGYRGGYGWSVRMDYWGQGTQVTVSS
polyreactivity (PSR sort gate): high polyreactivity

QVQLVESGGGLVQAGGSLRLSCAASGSIFTLYAMGWYRQAPGKETELVAVISSSGGRTYYADSVKGRFTISRDNAKNTVYLQMNSLKPEDTAVYYGAARGYGATYDYWGQGTQVTVSS
polyreactivity (PSR sort gate): high polyreactivity

QVQLVESGGGLVQAGGSLRLRCAASGIIFYRNVMGWYRQAPGKERELVAAISGRGGSTYYADSVKGRFTISRDNAKNTVYLQMNILKPEETAVYYCATDTRTWRFTRGAWYTYGSDYWGQGTQVTVSS
polyreactivity (PSR sort gate): high polyreactivity

QVQLVESGGGLVQAGGSLRLSCAAYGRIFSYYAMGWYRQAPGKERELVATINSGGSTNYADSVKGRFTISRDNAKNTVYLQMNSLKPEDTAVYYCDASPVWWYDYWGQGTQVTVSS
polyreactivity (PSR sort gate): low polyreactivity

QVQLVESGGGLVQAGGSLRLSCAASGSTFTRNTMGWYKQAPGKERELVAAISRRGGRTDYADSVKGRFTISRDNAKNTVYLQMNSLKPEDTAVYYCAADPITVDQNPRYGYWGQGTQVTVSS
polyreactivity (PSR sort gate): high polyreactivity

QVQLVESGGGLVQAGCSLRLSCAASGLTFYHYTMGWYRQEPGKERDLVAAISRRGGYTYYADSVKGRFTISRDNAKNTVYLQMNSLKPEDTAVYYCAARALRYSRDFDYWGQGTQVTVSS
polyreactivity (PSR sort gate): high polyreactivity

QVQLVESGGGLVQAGGSLRLSCAASGGTFEPNAMGWYRQPPGKEREFVAAITWNGGRTNYADSVKGRFTISRDNAKNTVYLQMNSLKPEDTAVYYCAARSYTDYNYWGQGTQVTVSS
polyreactivity (PSR sort gate): high polyreactivity

QVQLVESGGGLVQAGGSLRLSCAASGSIFSTYAMGWSRQAPGKERELVAAINRSGGSTTYADSVKGRCTISRDNAKNTVYLQMNSLKPEDTAVYYCAKAFRGHYWGQGTQVSVSS
polyreactivity (PSR sort gate): high polyreactivity

QDQLVESGGGLVQAGGSLRLSCAASGRTIFRNAMGWYRQAPGKERELVAAITWSGGSTYYADSVKGRFTISRDNAKNTVYLQMNSLKPEDTAVYYCNRKRYGSDYEYWGQGTQVTVSS
polyreactivity (PSR sort gate): low polyreactivity

QVQLVESGGGLVQAGGSLRLSCAASGSTFLPNAMGWYRQAPGKERELVAAISYRGGGTFYADSVKGRFTISRDNAKNTVYLQMNSLKPEDTAVYYCADDWSWFDNFDYWGQGTQVTVSS
polyreactivity (PSR sort gate): low polyreactivity

QVQLVESGGGLVQAGGSLRLSCAASGSTFDPNVMGWYRQAPGKERELVAVITTTGVSTYYADSVKGRFTISRDNAKNTVYLQMNSLKPEDTAVYYCNAKWYWYLTRDAYRYRYTYDYWGQGTQVTVSS
polyreactivity (PSR sort gate): low polyreactivity

QVQLVESGGGLVQAGGSLRLSFAASGSNFAVKAMGLNTPAPGKERELVATITRRDGSTYYADSVKGRFTISRDNAKYTVYLQLNSLKPEDTAVYYCNARLKRTYDYWGQGTQVTVSS
polyreactivity (PSR sort gate): high polyreactivity

QVQLVESGGGLVQAGGSLRLSCSASGGIFWVYAMGWYRQAPGKERELVAAISNSDTSTSYADSVKGRFTISRDNAKNTVYLQMNSLKPEDTAVYYCNADSPSLSGDYWGQGTQVTVSS
polyreactivity (PSR sort gate): low polyreactivity

QVQLVDSGGVLVQAGGSLRLSCAASGGTFRTYAMGWYRQAPGKERELVAAITWRGGSTYYADSVKGRFTISRDNAKNTVYLQMNSLKPEDTAVYNCAARVAYQWSFYKYDYWGQGTQVTVSS
polyreactivity (PSR sort gate): high polyreactivity

QVQLVESGGGLVQAGGSLRLSCAASGRPFGRYAMGWYRPAPGKERELVAAITGSGGSTYYADSVKGRYTMSRDNAKNTVYLQMNSLKPEDTAVYYCAAPQRYYYTAMGYWGQGTQVTVSS
polyreactivity (PSR sort gate): high polyreactivity

QVPLVESGGGLVQAGGSLRLSCAASGSICGGYAMGWYRQAPGKERELVAGITYSGDSTYYADSVKGRFTISRDNAKNTVYLQMNSLKPEDTAGYYCNADQRVDHDDFDYWGQGTQVTVSS
polyreactivity (PSR sort gate): low polyreactivity
